Assays:
Avr15 TALE NTD SSR = Avr15 TALE NTD SSR (synthetic, UniProt Q56830 SEQ:151-834, K230S,Q231S,W232R (KQW to SSR))
Avr15 TALE NTD SRC = Avr15 TALE NTD SRC (synthetic, UniProt Q56830 SEQ:151-834, K230S,Q231R,W232C (KQW to SRC))
Avr15 TALE NTD KRSNG = Avr15 TALE NTD KRSNG (synthetic, UniProt Q56830 SEQ:151-834, Q231R,W232S,S233N (KQWSG to KRSNG))
Avr15 TALE NTD PTR = Avr15 TALE NTD PTR (synthetic, UniProt Q56830 SEQ:151-834, K230P,Q231T,W232R (KQW to PTR))
Avr15 TALE NTD PKD = Avr15 TALE NTD PKD (synthetic, UniProt Q56830 SEQ:151-834, K230P,Q231K,W232D (KQW to PKD))

Row | Binder | binding result (Avr15 TALE NTD SSR) | binding result (Avr15 TALE NTD SRC) | binding result (Avr15 TALE NTD KRSNG) | binding result (Avr15 TALE NTD PTR) | binding result (Avr15 TALE NTD PKD)
1 | G-Avr15 site (dsDNA) DNA 1: GATAAACCCCCTCCAA DNA 2: TTGGAGGGGGTTTATC | binds | binds | binds | – | –
2 | A-Avr15 site (dsDNA) DNA 1: AATAAACCCCCTCCAA DNA 2: TTGGAGGGGGTTTATT | – | – | – | binds | binds

From patent US20230304022, “CHIMERIC POLYPEPTIDES HAVING TARGETED BINDING SPECIFICITY” (The Scripps Research Institute, published 2023)
